# Experimental data published in article PMC10454455.
# Legend:
# [1] = target: CH505 T/F UFO Env trimer (HIV-1 (subject CH505)); assay: SEC; lectin-purified Env proteins separated on a Superdex 200 Increase 10/300 GL column
# [2] = target: CH505 T/F UFO Env trimer (HIV-1 (subject CH505)); assay: native gel or EMSA; blue native gel (NativePAGE 3-12% Bis-Tris) of the fractions collected from SEC
substance,measurement,setting,value
CH505 T/F UFO Env trimer,stoichiometry N,[1],3
same,stoichiometry N,[2],3
